In US20250387450A1 (AIKIUM, published 2025) one finds binding result and fluorescent signal data, which are given here for 6 molecules.

Substitutions are numbered along the chain they refer to.

To fix the notation:
T1: KAAG1 disordered region peptide, PGAAAAHLPRWPPPQLAASRREA (biotin label)
T1 construct: also called KAAG1 Peptide
T1 peptide: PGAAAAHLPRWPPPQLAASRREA

T2: Urotensin-2 receptor N-terminal peptide, MALTPESPSSFPGLAATGSSVPEPPGGPNATLNSSWASPTEPSSLEDLVATGTI (biotin label)
T2 construct: also called Urotensin IIR; GPCR2 (Urotensin II)
T2 peptide: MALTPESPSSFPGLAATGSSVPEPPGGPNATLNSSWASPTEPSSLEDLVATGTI

T3: TNFRSF13B disordered region peptide, LPPELRRQRSGEVENNSDNSGRYQ (biotin label)
T3 construct: also called TNFRSF13B Peptide
T3 peptide: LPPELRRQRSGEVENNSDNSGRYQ

T4: CYSLTR2 N-terminal disordered region peptide, MERKFMSLQPSISVSEMEPNGTFSNNNSRNCTIENFKREFFP (biotin label)
T4 construct: also called CysLT2; CysLT2r
T4 peptide: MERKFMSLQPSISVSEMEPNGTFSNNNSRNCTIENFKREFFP

T5: CD74 disordered region peptide (CLIP), PPKPVSKMRMATPLLMQALPMGALP (biotin label)
T5 construct: also called CD74 Peptide
T5 peptide: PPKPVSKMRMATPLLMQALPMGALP

B1: engineered scaffold protein S065 (designed binder)
chain: GSHSMRYFYTSVSRPGRGEPRFISVGYVDDTQFVRFDSDAASPREEPRAPWIEQEGPEAWDRNTQIYKAQAQTDRESLRNLRGYYNQSEAGSHTLQSMYGCDVGPDGRLLRGHDQYAYDGKDSIALNEDLRSWTAADTAAQITQRYWEAAREAEQRRAYLEGECVEHLRRVLENGKDKLERADGGSHHHHHHLE
B2: engineered scaffold protein S098 (designed binder)
chain: PENYLFQGRQECNGTQFLERYIYNREEFVRFDEFRAVGRPDEEYWNSQKDILEEERAVPDRMCRHNYELGGPMTLQRRVQPRVNIKADHVSTYAAFVQRPFMFEFDEDEMFYVDLHLEEFGQAFSFEAQGGLANIAILNNNLNTRSNHTQATNDPPHHHHHHLE
B3: engineered scaffold protein S058 (designed binder)
chain: B1 chain with F8N, V25E, A59Y, A117Y, S123Y, A125S, Y146K, H167W, V171Y
B4: engineered scaffold protein S068 (designed binder)
chain: GDTRPRFLWQLKFECHFFNGTERVRLLERCIYNQEESVRFDSDVGEYRAVTELGRPDAEYWNSQKDLLEQRRAAVDTYCRHNYGVGESFTVQRRVEPKVTVYPSKTQPLQHHNLLVCSVSGFYPGSIEVRWFRNGQEEKAGVVSTGLIQNGDWTFQTLVMLETVPRSGEVYTCQVEHPSVTSPLTVEWRASGGGGSGGGGSGGGGIKEEHVIIQAEFYLNPDQSGEFMFDFDGDEIFHVDMAKKETVWRLEEFGRFASFEAQGALANIAVDKANLEIMTKRSNYTPITNVPPEVTVLTNSPVELREPNVLICFIDKFTPPVVNVTWLRNGKPVTTGVSETVFLPREDHLFRKFHYLPFLPSTEDVYDCRVEHWGLDEPLLKHWEFDAPSGGSHHHHHHLE
B5: engineered scaffold protein S134 (designed binder)
chain: MVKYHHHHHHGGSENLYFQGMGDTRPRFLWQPKRECHFFNGTERVRFLDRYFYNQEESVRFDSDVGEFRAVTELGRPDAEYWNSQKDILEQARAAVDTYCRHNYGVVESFTVQRRVIKEEHVIIQAEFYLNPDQSGEFMFDFDGDEIFHVDMAKKETVWRLEEFGRFASFEAQGALANIAVDKANLEIMTKRSNYTPITN
B6: engineered scaffold protein S143 (designed binder)
chain: MGDTRPRFLWQLKFECHFFNGTERVRLLERCIYNQEESVRFDSDVGEYRAVTELGRPDAEYWNSQKDLLEQRRAAVDTYCRHNYGVGESFTVQRRVIKEEHVIIQAEFYLNPDQSGEFMFDFDGDEIFHVDMAKKETVWRLEEFGRFASFEAQGALANIAVDKANLEIMTKRSNYTPTINGGSHHHHHH

The first test addresses T1, KAAG1 disordered region peptide, …. In words: ELISA: scaffold coated on plate, biotinylated peptide titrated, streptavidin-HRP fluorescence. The method, then: (§1) Binder proteins were coated on the surface of a high binding capacity 96 well plate by incubating 100 μL of protein at 5 μg/mL in a coating solution (10 mM Tris pH 8.8, 50 mM NaCl), overnight at 4 C. The next morning, the coating solution was aspirated out and wells were washed once with 300 μL ELISA wash buffer (1×PBS, 0.05% Tween-20) and solution was aspirated out. The wells were blocked with 200 μL of a blocking buffer (1×PBS, 0.05% Tween-20, 3% BSA) at room temperature for 1 hour. After one hour, the blocking solution was aspirated out and 100 μL of biotinylated polypeptide in a binding buffer (1×PBS, 0.05% Tween-20, 0.5% BSA) at various concentrations was added to the appropriate well and incubated for 20 minutes. Peptide solution was aspirated out after 20 minutes and wells were washed 5 times with 300 μL of ELISA wash buffer. To detect the biotinylated peptide, 100 μL of streptavidin-HRP (50 ng/ml) was added to each well and incubated for 1 hour. The wells were subsequently washed 5 times with 300 μL of ELISA wash buffer. 100 μL of QuantaBlu Fluorogenic Peroxidase substrate solution was added to each well, incubated for 30 minutes and reaction stopped by adding 100 μL of stop solution. Fluorescent signal from each well was measured using a Biotek Cytation5 plate reader by exciting the fluorophore at […] and measuring emission at 420 nm. Fluorescent signals were plotted as a function of polypeptide concentration.
For the molecule B1, the binding result is given as “no binding (tested: 10000 nM)”.

A further test concerns the target T2, Urotensin-2 receptor N-terminal …. In words: modified sandwich ELISA, grade by the table's key. The protocol: as §1
(In general: ELISA stands for enzyme-linked immunosorbent assay.)
Consider B2, for which the binding result is “no binding (tested: <5000 (fluorescence, key))”.
B3: the binding result was “no binding (tested: <5000 (fluorescence, key))”.
B1: the binding result is given as “no binding (tested: <5000 (fluorescence, key))”.
Still for that read-out and setting: in the case of B4 it was “no binding (tested: <5000 (fluorescence, key))”.

For a further test, the target named is T3, TNFRSF13B disordered region peptide, …. In words: modified sandwich ELISA, grade by the table's key. The method, then:
as §1
In the case of B2, the binding result is recorded as “no binding (tested: <5000 (fluorescence, key))”.
Same read-out and setting: in the case of B1 it was “no binding (tested: <5000 (fluorescence, key))”.
The same measure, in the same setting: the same measure for B4: “no binding (tested: <5000 (fluorescence, key))”.

A further test concerns the target T1, KAAG1 disordered region peptide, …. In words: modified sandwich ELISA, grade by the table's key. The method, then:
as §1
For B2, the binding result is “no binding (tested: <5000 (fluorescence, key))”.
Still for that read-out and setting: the same measure for B5: “no binding (tested: <5000 (fluorescence, key))”; for B6: “no binding (tested: <5000 (fluorescence, key))”.
On the same count and under the same terms, the same measure for B4: “no binding (tested: <5000 (fluorescence, key))”.

The target in a further test is T4, CYSLTR2 N-terminal disordered region …. In words: modified sandwich ELISA, fluorescence grade by the table's key. The protocol: as §1
B2 came in with a fluorescent signal of 100000 to 250000 fluorescentsignal.

In a further test the target is T5, CD74 disordered region peptide (CLIP), …. Described as above. The protocol: as §1
B2: the fluorescent signal was > 400000 fluorescentsignal.
Same read-out and setting: in the case of B3 it was > 400000 fluorescentsignal; in that of B1, > 400000 fluorescentsignal.
On the same count and under the same terms, in the case of B5 it was 100000 to 250000 fluorescentsignal.
Same read-out and setting: the same measure for B6: > 400000 fluorescentsignal.
Regarding B4, the fluorescent signal is > 400000 fluorescentsignal.
